Data set [1] has as its target T1, Cas9 (wild type) (Streptococcus pyogenes, UniProt Q99ZW2 1-1368). Kind of data set: EMSA; 20 nM crRNA cr20, 20 nM tracrRNA; EMSA: 1 nM 32P-dsDNA, 10 nM Cas9 (or titrated), 20 nM tracrRNA, 20 nM crRNA, 2.5 ug/ml heparin, 5% native PAGE; buffer, pH and temperature as in cited ref 11 (not given). The conditions noted are these: protein: recombinant; label: 32P on DNA; duplex DNA; crRNA:tracrRNA guide. (A gel shift assay detects complexes by their altered migration in electrophoresis.)

The target in data set [2] is T1, Cas9 (wild type). The data set can be described thus: EMSA; cr20 + tracrRNA; EMSA: 1 nM 32P-dsDNA, 10 nM Cas9 (or titrated), 20 nM tracrRNA, 20 nM crRNA, 2.5 ug/ml heparin, 5% native PAGE; buffer, pH and temperature as in cited ref 11 (not given). To be noted: protein: recombinant; label: 32P on DNA; duplex DNA; crRNA:tracrRNA guide.

Numbering of substitutions follows the chain as printed.

T1 sequence (Q99ZW2 whole entry): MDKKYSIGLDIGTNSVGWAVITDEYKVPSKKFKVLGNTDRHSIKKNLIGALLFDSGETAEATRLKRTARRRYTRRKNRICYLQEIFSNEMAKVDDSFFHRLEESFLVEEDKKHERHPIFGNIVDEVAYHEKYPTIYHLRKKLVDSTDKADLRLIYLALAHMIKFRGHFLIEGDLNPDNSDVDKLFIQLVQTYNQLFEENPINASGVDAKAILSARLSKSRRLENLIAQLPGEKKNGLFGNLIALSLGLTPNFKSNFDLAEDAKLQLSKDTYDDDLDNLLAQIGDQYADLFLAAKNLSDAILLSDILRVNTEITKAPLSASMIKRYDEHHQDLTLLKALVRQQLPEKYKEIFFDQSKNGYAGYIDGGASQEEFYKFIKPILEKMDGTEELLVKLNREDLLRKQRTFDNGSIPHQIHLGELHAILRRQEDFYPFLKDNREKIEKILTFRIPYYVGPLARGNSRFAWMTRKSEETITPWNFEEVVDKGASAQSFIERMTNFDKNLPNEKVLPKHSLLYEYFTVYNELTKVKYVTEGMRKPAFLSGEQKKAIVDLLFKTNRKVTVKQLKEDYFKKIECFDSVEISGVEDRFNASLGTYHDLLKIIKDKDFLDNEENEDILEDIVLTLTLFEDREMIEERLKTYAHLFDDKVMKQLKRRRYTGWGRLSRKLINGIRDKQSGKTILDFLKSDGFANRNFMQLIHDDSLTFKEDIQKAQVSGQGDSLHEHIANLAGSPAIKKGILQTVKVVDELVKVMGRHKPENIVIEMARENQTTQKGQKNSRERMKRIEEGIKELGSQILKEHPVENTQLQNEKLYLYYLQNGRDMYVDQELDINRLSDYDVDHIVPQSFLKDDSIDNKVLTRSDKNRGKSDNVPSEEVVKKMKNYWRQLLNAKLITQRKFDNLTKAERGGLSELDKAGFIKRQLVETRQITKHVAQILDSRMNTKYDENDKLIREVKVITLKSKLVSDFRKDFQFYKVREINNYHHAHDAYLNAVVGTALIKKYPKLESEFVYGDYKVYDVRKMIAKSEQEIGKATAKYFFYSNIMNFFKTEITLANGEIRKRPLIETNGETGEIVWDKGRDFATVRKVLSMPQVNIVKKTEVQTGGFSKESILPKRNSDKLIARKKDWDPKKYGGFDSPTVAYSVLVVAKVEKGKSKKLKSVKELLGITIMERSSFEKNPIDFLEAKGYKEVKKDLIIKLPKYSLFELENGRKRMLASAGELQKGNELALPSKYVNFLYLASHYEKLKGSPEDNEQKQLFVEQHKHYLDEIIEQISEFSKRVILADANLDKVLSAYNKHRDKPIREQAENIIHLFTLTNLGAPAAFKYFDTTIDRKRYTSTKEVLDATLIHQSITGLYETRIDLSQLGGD

B1: p53 [Exon 7] 55 bp duplex + cr20 + tracrRNA (mixed)
DNA 1: TCCACTACAAGTACATGTGTAATAGCTCCTGCATGGGGGGCATGAACCGCCGACC
DNA 2: GGTCGGCGGTTCATGCCCCCCATGCAGGAGCTATTACACATGTACTTGTAGTGGA
Broadly, the Kd is the equilibrium constant for the complex coming apart. As to B1, the Kd in the data set with Cas9 (wild type) [1] worked out at 1.5 ± 0.1 nM.

B2: OT#7 probe + cr20 + tracrRNA (mixed)
DNA 1: B1 DNA 1 with T20G, T23C
DNA 2: B1 DNA 2 with A33G, A36C
Consider B2, for which the binding result in the data set with Cas9 (wild type) [2] is on record as “binds”.

(Values after paper PMC4183563, “Protospacer Adjacent Motif (PAM)-Distal Sequences Engage CRISPR Cas9 DNA Target Cleavage”.)
